Source: patent US20250332297A1, “DLL3-SPECIFIC BINDING CONSTRUCTS AND THEIR USE IN RADIOTHERAPY” (MOLECULAR PARTNERS AG, priority 2024, published 2025)
Numbering of substitutions follows the chain as printed. Values belong to the molecule of their own block, whether it stands above or below them.

Columns and labels:
[1] = molecular target: Human DLL3 expressed on cells (HEK293T-hDLL3, NCI-H82, SHP-77, MC38-hDLL3) (human) (UniProt Q9NYJ7); experiment: flow cytometry titration on HEK293T-hDLL3 cells, with HSA
[2] = molecular target: Human DLL3 expressed on cells (HEK293T-hDLL3, NCI-H82, SHP-77, MC38-hDLL3) (human) (UniProt Q9NYJ7); experiment: flow cytometry titration on HEK293T-hDLL3 cells, without HSA
[3] = molecular target: T1, Human DLL3 expressed on cells (HEK293T-hDLL3, NCI-H82, SHP-77, MC38-hDLL3) (human, UniProt Q9NYJ7 27-618); experiment: flow cytometry titration on NCI-H82 cells, with HSA
T1 construct: also called DLL3 endogenously expressed on human cells
T1 sequence: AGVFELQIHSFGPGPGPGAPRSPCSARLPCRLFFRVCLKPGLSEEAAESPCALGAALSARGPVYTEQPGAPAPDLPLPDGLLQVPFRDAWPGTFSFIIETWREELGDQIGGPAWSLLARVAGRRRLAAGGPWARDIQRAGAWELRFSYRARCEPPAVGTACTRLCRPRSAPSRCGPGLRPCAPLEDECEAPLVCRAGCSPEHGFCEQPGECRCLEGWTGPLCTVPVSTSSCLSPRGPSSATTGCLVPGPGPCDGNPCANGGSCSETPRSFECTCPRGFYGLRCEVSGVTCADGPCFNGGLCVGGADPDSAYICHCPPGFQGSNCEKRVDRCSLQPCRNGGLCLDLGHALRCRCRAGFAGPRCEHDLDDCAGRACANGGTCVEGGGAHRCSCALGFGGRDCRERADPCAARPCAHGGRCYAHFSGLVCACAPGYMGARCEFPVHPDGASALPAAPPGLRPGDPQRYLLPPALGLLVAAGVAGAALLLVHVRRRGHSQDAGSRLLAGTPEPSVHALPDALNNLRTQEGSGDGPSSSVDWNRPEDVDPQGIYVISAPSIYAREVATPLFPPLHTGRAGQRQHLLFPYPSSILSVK

mouse serum albumin [4] = molecular target: T2, mouse serum albumin (Mus musculus, UniProt P07724); experiment: SPR binding of 2D DARPins with different HSA binders to mouse serum albumin (Example 3); settings: immobilized MSA, Cysteine capped with IAM, 1:1 Langmuir, Table 12
T2 construct: purchased Sigma-Aldrich
T2 sequence (P07724 25-608): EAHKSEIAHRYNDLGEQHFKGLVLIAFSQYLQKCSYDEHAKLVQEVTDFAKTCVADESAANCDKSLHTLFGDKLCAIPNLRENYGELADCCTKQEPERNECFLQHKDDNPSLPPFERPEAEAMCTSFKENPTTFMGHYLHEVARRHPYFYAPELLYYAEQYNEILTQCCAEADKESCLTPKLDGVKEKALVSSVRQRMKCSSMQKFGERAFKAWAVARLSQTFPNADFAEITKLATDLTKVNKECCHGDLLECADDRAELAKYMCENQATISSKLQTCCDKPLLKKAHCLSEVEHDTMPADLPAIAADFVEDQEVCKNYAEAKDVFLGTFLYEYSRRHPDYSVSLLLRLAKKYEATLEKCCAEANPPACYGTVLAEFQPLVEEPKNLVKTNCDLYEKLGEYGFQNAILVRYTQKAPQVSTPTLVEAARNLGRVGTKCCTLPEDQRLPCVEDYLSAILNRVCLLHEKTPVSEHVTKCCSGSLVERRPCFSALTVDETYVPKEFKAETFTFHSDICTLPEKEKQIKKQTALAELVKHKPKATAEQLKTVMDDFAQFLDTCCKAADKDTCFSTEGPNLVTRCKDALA

human serum albumin [5] = molecular target: human serum albumin (Homo sapiens, UniProt P02768)
[6] = molecular target: T1, Human DLL3 expressed on cells …; experiment: flow cytometry titration on HEK293T-hDLL3 cells, with HSA
Experimental: (§1) Cell binding titration assays were performed for selected His-tagged single domain (1 D) and two domain (2D) designed ankyrin repeat proteins to determine binding to human DLL3 expressed on HEK293T-huDLL3 cells in absence and presence of human serum albumin. […] HEK293T-hDLL3 cells are HEK293T cells that were stably transfected to express human DLL3 on their surface.
(§2) In brief, 1×10⁵ cells/well were resuspended in 100 μl DARPin dilution (500 nM, 1:5 serial diluted) and incubated for 1 h at 4° C. Cells were washed twice with PBS and resuspended in 100 μl anti-DARPin antibody (rabbit anti-DARPin 1.4.8) and LIVE/DEAD fixable cell stain (1:1000, Thermo Fisher #L34957). This step was performed in absence and presence of 10 pM Human Serum Albumin (CSL Behring #150570). After incubation and washing, cells were incubated with detection antibody for 30 minutes (Goat […] IgG (H+L), AF647, Thermo Fisher #21445). Cells were fixed (Paraformaldehyde Solution, LucernaChem) and acquired at Attune N×T (Thermo Life Technologies). Raw fcs files were exported and analyzed using FlowJo software. MFI values of live AF647-positive cells were exported from FlowJo and plotted using GraphPad Prism software.

[7] = molecular target: T1, Human DLL3 expressed on cells …; experiment: flow cytometry titration on HEK293T-hDLL3 cells, without HSA
Experimental: as §1, §2

[8] = molecular target: T1, Human DLL3 expressed on cells …; experiment: flow cytometry titration on NCI-H82 cells (endogenous DLL3), without HSA
Experimental: (§3) Furthermore, cell binding titration assays were also performed with selected two domain (2D) designed ankyrin repeat proteins to determine binding to human cells expressing DLL3 endogenously, in absence and presence of human serum albumin. For this purpose, NCI-H82 cells were used, a human lung carcinoma cell line which endogenously expresses DLL3 on the surface. […] A non-binding DARPin comprising SEQ ID NO: 22 was used as a negative control.
as §2, with “diluted in PBS, 2% FBS)” for “diluted)”, “C. This step was performed in absence and presence of 10 μM Human Serum Albumine (CSL Behring #150570).” for “C.”, “PBS, 2% FBS” for “PBS”, “LIVE/DEAD” for “LIVE/DEAD fixable”, “Biolegend #423106).” for “Thermo Fisher #L34957). This step was performed in absence and presence of 10 pM Human Serum Albumin (CSL Behring #150570).”, “Solution, TCL119,” for “Solution,”

[9] = molecular target: T1, Human DLL3 expressed on cells …; experiment: flow cytometry titration on NCI-H82 cells (endogenous DLL3), with 10 uM HSA
Experimental: as §3
as §2, with “diluted in PBS, 2% FBS)” for “diluted)”, “C. This step was performed in absence and presence of 10 μM Human Serum Albumine (CSL Behring #150570).” for “C.”, “PBS, 2% FBS” for “PBS”, “LIVE/DEAD” for “LIVE/DEAD fixable”, “Biolegend #423106).” for “Thermo Fisher #L34957). This step was performed in absence and presence of 10 pM Human Serum Albumin (CSL Behring #150570).”, “Solution, TCL119,” for “Solution,”

human serum albumin [10] = molecular target: T3, human serum albumin (human, UniProt P02768 25-609); experiment: SPR (Bruker Sierra SPR-32), HSA on chip, DARPin as analyte, 1:1 Langmuir fit
T3 construct: also called HSA
Experimental: (§4) Similarly, a SPR assay was used to determine the binding kinetics to human or mouse serum albumin. […] All analytes (3-fold dilution ranging from 1000-12.35 nM) were injected in succession for 240 s (25 μl/min) and dissociation was recorded for 600 s (25 μl/min).

mouse serum albumin [11] = molecular target: T4, mouse serum albumin (mouse, UniProt P07724 25-608); experiment: SPR (Bruker Sierra SPR-32), MSA on chip, DARPin as analyte, 1:1 Langmuir fit
T4 construct: also called MSA
T4 sequence (P07724 25-608 limits assumed): as the sequence (P07724 25-608) above
Experimental: as §4

[12] = molecular target: T5, hDLL3 ECD-Avi-Fckih (biotinylated extracellular domain of human DLL3, residues 27 to 466, Avi-tag, 3C site, … (human, UniProt Q9NYJ7 27-466, biotinylated at the Avi-tag)); experiment: SPR (ProteOn), biotinylated hDLL3 ECD-Avi-Fckih on chip, DARPin as analyte, 1:1 Langmuir fit
T5 construct: The make-up of the second Fc chain of the knob-into-hole pair is not described; also called bio-DLL3; recombinant human DLL3; not shown: Avi-tag, 3C protease recognition site and Fc knob into hole
T5 sequence: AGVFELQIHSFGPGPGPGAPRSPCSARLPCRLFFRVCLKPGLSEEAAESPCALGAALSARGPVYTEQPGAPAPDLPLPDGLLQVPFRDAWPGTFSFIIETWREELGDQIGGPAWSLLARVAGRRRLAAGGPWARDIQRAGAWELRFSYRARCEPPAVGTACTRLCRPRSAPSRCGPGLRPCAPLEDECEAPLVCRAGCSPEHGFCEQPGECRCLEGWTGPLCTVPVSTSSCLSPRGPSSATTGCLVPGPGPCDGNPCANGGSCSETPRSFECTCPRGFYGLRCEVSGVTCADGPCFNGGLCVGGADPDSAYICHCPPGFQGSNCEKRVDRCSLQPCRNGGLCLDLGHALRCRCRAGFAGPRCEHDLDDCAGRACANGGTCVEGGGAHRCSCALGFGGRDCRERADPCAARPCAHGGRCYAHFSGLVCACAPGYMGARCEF
Experimental: Kinetic binding parameters and binding affinities of two domain (2D) ankyrin repeat proteins comprising an ankyrin repeat domain with binding specificity for DLL3 and an ankyrin repeat domain with binding specificity for serum albumin were determined by surface plasmon resonance (SPR) multi-trace analysis.
In brief, a SPR assay was used to determine the binding kinetics to the target human DLL3. The data were generated using BioRad ProteOn instrument in SPR running buffer (PBS, pH 7.4 containing 0.005% Tween 20®). […] The chip was coated with biotinylated target (bio-DLL3) to reach a signal intensity of 1780 RU. […] Each injection was followed by a regeneration step with 16 mM H₃PO₄ for 18 s. […] The bio-DLL3 target used was as described in U.S. 63/550,951, i.e. the extracellular domain (ECD) of human DLL3 protein (Q9NYJ7, Gene ID: 10683, residues 27 to 466; purchased from Evitria) linked via an Avi-tag (for site-directed biotinylation), followed by a 3C protease recognition site, to a Fc knob into hole (hDLL3 ECD-Avi-Fcₖᵢₕ).

B2: High HSA affinity 2D DARPin: MAM160 with a GS at the N-terminus and a Cysteine-containing tag at the C-terminus (protein)
chain: GSDLGKKLLEAARAGQDDEVRELLKAGADVNAKDYFSHTPLHLAARNGHLKIVEVLLKAGADVNAKDFAGKTPLHLAADAGHLEIVEVLLKAGADVNAQDIFGKTPADIAADAGHEDIAEVLQKAAGSPTPTPTTPTPTPTTPTPTPTGSDLGTKLLSAAADGQDDEVRELLQAGADVNAKDLFGYTPLHLAAWRGHLEIVEVLLEAGADVNAKDAAGLTPLHLAAWFGHLEIVEVLLEAGADVNAQDVQGVTPADLAAKEGHEDIAEVLQQAAGSGSC
modifications: Ankyrin repeat protein with tag (GS-MAM160-tag)
Koff MSA (mouse serum albumin [4]): 0.0345 s⁻¹ | Kon MSA (mouse serum albumin [4]): 133000 M⁻¹ s⁻¹ | Koff HSA (human serum albumin [5]): 0.0311 s⁻¹ | Kon HSA (human serum albumin [5]): 105000 M⁻¹ s⁻¹ | fold higher binding affinity to HSA than the Low HSA affinity 2D DARPin (human serum albumin [5]; SPR KD comparison): about 10 fold

B4: MAM283 (two domain ankyrin repeat protein, N-terminal His6-TEV tag) (designed binder)
chain: MRGSHHHHHHENLYFQDLGKKLLEAARAGQDDEVRELLKAGADVNAKDYFSHTPLHLAARNGHLKIVEVLLKAGADVNAKDFAGKTPLHLAADAGHLEIVEVLLKAGADVNAQDIFGKTPADIAADAGHEDIAEVLQKAAGSPTPTPTTPTPTPTTPTPTPTGSDLGKKLLAAAADGQDDEVRELLQAGADVNAKDLFGYTPLHLAAWRGHLEIVEVLLEAGADVNAKDAAGETPLHLAAWFGHLEIVEVLLEAGADVNAQDVQGKTPADLAAKEGHEDIAEVLQQAA
notes: also called 2D DARPin
EC50 [6]: 18.4 nM | EC50 [7]: 22.1 nM | EC50 [8]: 5.4 nM | EC50 [9]: 8.1 nM | Kd (human serum albumin [10]): 103 nM | koff (human serum albumin [10]): 0.00924 s⁻¹ | kon (human serum albumin [10]): 89500 M⁻¹ s⁻¹ | Kd (mouse serum albumin [11]): 507 nM | koff (mouse serum albumin [11]): 0.0378 s⁻¹ | kon (mouse serum albumin [11]): 74700 M⁻¹ s⁻¹ | Kd [12]: 0.953 nM | koff [12]: 1.79e-05 s⁻¹ | kon [12]: 18800 M⁻¹ s⁻¹

B5: MAM279 (two domain ankyrin repeat protein, N-terminal His6-TEV tag) (designed binder)
chain: B4 chain with D176Q, Q187K, D191N, E220K, E253K, V263L, Q286K
notes: Cleavage of the tag is not reported; also called 2D DARPin
EC50 [6]: 16.3 nM | EC50 [7]: 14.9 nM | EC50 [8]: 2.5 nM | EC50 [9]: 2.1 nM | Kd (human serum albumin [10]): 75 nM | koff (human serum albumin [10]): 0.00923 s⁻¹ | kon (human serum albumin [10]): 123000 M⁻¹ s⁻¹ | Kd (mouse serum albumin [11]): 367 nM | koff (mouse serum albumin [11]): 0.0335 s⁻¹ | kon (mouse serum albumin [11]): 91200 M⁻¹ s⁻¹ | Kd [12]: 0.616 nM | koff [12]: 1.44e-05 s⁻¹ | kon [12]: 23300 M⁻¹ s⁻¹

Second part, the molecule after the results:

EC50 [1]: 0.3 nM | EC50 [2]: 0.1 nM
Molecule: Rova antibody

binding result [3]: no binding (tested: 500 nM)
B1: Non-binding DARPin control comprising SEQ ID NO: 22 (designed binder)
chain: DLGKKLLEAARAGQDDEVRELLKAGADVNAKDKDGYTPLHLAAREGHLEIVEVLLKAGADVNAKDKDGYTPLHLAAREGHLEIVEVLLKAGADVNAQDKSGKTPADLAADAGHEDIAEVLQKAAGSPTPTPTTPTPTPTTPTPTPTGSDLGKKLLEAARAGQDDEVRELLKAGADVNAKDKDGYTPLHLAAREGHLEIVEVLLKAGADVNAKDKDGYTPLHLAAREGHLEIVEVLLKAGADVNAQDKSGKTPADLAADAGHEDIAEVLQKAA
notes: Negative control on NCI-H82 cells; also called control DARPin

EC50 [6]: 19.6 nM | EC50 [7]: 21.2 nM | EC50 [8]: 2.6 nM | EC50 [9]: 2.6 nM | Kd (human serum albumin [10]): 74.3 nM | koff (human serum albumin [10]): 0.00889 s⁻¹ | kon (human serum albumin [10]): 120000 M⁻¹ s⁻¹ | Kd (mouse serum albumin [11]): 335 nM | koff (mouse serum albumin [11]): 0.0354 s⁻¹ | kon (mouse serum albumin [11]): 106000 M⁻¹ s⁻¹ | Kd [12]: 3.03 nM | koff [12]: 3.79e-05 s⁻¹ | kon [12]: 12500 M⁻¹ s⁻¹
B3: MAM282 (two domain ankyrin repeat protein, N-terminal His6-TEV tag) (designed binder)
chain: MRGSHHHHHHENLYFQDLGKKLLEAARAGQDDEVRELLKAGADVNAKDYFSHTPLHLAARNGHLKIVEVLLKAGADVNAKDFAGKTPLHLAADAGHLEIVEVLLKAGADVNAQDIFGKTPADIAADAGHEDIAEVLQKAAGSPTPTPTTPTPTPTTPTPTPTGSDLGKKLLAAAREGQDDEVRELLKAGADVNAKDIWGQTPLHIAAWFGHLEIVEVLLKAGADVNAKDQTGHTPLHLAAKFGHLEIVEVLLKAGADVNAQDLLGRTPADLAAEEGHEDIAEVLQKAA
notes: also called 2D DARPin
